We go through nine molecules from patent publication US20230042694A1 (SUZHOU CUREMED BIOMEDICAL TECHNOLOGY, published 2023).

B1: recombinant polypeptide K19-CHIP (N-K19 (first polypeptide)-linker peptide-CHIP (second polypeptide)-C) (other)
chain: MDLGKKLLEAARAGQDDEVRILMANGADVNASDRGGGTPLHLAAAGGHLEIVEVLLKRGADVSAADLHGQSPLHLAAMVGHLEIVEVLLKYGADVNAKDTMGATPLHLAARSGHLEIVEELLKNGADMNAQDKFGKTTFDISTDNGNEDLAEILQKLSGSGSGSGRLNFGDDIPSALRIAKKKRWNSIEERRIHQESELHSYLSRLIAAERERELEECQRNHEGDEDDSHVRAQQACIEAKHDKYMADMDELFSQVDEKRKKRDIPDYLCGKISFELMREPCITPSGITYDRKDIEEHLQRVGHFDPVTRSPLTQEQLIPNLAMKEVIDAFISENGWVEDYGS
B2: recombinant polypeptide K19-SPOP (N-K19 (first polypeptide)-linker peptide-SPOP (second polypeptide)-C) (other)
chain: MDLGKKLLEAARAGQDDEVRILMANGADVNASDRGGGTPLHLAAAGGHLEIVEVLLKRGADVSAADLHGQSPLHLAAMVGHLEIVEVLLKYGADVNAKDTMGATPLHLAARSGHLEIVEELLKNGADMNAQDKFGKTTFDISTDNGNEDLAEILQKLGSGSGSGSVNISGQNTMNMVKVPECRLADELGGLWENSRFTDCCLCVAGQEFQAHKAILAARSPVFSAMFEHEMEESKKNRVEINDVEPEVFKEMMCFIYTGKAPNLDKMADDLLAAADKYALERLKVMCEDALCSNLSVENAAEILILADLHSADQLKTQAVDFINYHASDVLETSGWKSMVVSHPHLVAEAYRSLASAQCPFLGPPRKRLKQS
B3: recombinant polypeptide βTrCP-K19 (N-βTrCP (second polypeptide)-linker peptide-K19 (first polypeptide)-C) (other)
chain: MGGLDYKDDDDKASDPAEAVLQEKALKFMNSSEREDCNNGEPPRKIIPEKNSLRQTYNSCARLCLNQETVCLASTAMKTENCVAKTKLANGTSSMIVPKQRKLSASYEKEKELCVKYFEQWSESDQVEFVEHLISQMCHYQHGHINSYLKPMLQRDFITALPARGLDHIAENILSYLDAKSLCAAELVCKEWYRVTSDGMLWKKLIERMVRTDSLWRGLAERRGWGQYLFKNKPPDGNAPPNSFYRALYPKIIQDIETIESNWRCGRHSLQRIHCRSGSGSGSGMDLGKKLLEAARAGQDDEVRILMANGADVNASDRGGGTPLHLAAAGGHLEIVEVLLKRGADVSAADLHGQSPLHLAAMVGHLEIVEVLLKYGADVNAKDTMGATPLHLAARSGHLEIVEELLKNGADMNAQDKFGKTTFDISTDNGNEDLAEILQKL
B4: recombinant polypeptide SKP2-K19 (N-SKP2 (second polypeptide)-linker peptide-K19 (first polypeptide)-C) (other)
chain: MGGLDYKDDDDKASHRKHLQEIPDLSSNVATSFTWGWDSSKTSELLSGMGVSALEKEEPDSENIPQELLSNLGHPESPPRKRLKSKGSDKDFVIVRRPKLNRENFPGVSWDSLPDELLLGIFSCLCLPELLKVSGVCKRWYRLASDESLWQTLDLTGKNLSGSGSGSGMDLGKKLLEAARAGQDDEVRILMANGADVNASDRGGGTPLHLAAAGGHLEIVEVLLKRGADVSAADLHGQSPLHLAAMVGHLEIVEVLLKYGADVNAKDTMGATPLHLAARSGHLEIVEELLKNGADMNAQDKFGKTTFDISTDNGNEDLAEILQKL
B5: recombinant polypeptide DDB2-K19 (N-DDB2 (second polypeptide)-linker peptide-K19 (first polypeptide)-C) (other)
chain: MGGLDYKDDDDKASAPKKRPETQKTSEIVLRPRNKRSRSPLELEPEAKKLCAKGSGPSRRCDSDCLWVGLAGPQILPPCRSIVRTLHQHKLGRASWPSVQQGLQQSFLHTLDSYRILQKAAPFDRRASGSGSGSGMDLGKKLLEAARAGQDDEVRILMANGADVNASDRGGGTPLHLAAAGGHLEIVEVLLKRGADVSAADLHGQSPLHLAAMVGHLEIVEVLLKYGADVNAKDTMGATPLHLAARSGHLEIVEELLKNGADMNAQDKFGKTTFDISTDNGNEDLAEILQKL
B6: recombinant polypeptide FBW7-K19 (N-FBW7 (second polypeptide)-linker peptide-K19 (first polypeptide)-C) (other)
chain: MGGLDYKDDDDKASCVPRSGLILSCICLYCGVLLPVLLPNLPFLTCLSMSTLESVTYLPEKGLYCQRLPSSRTHGGTESLKGKNTENMGFYGTLKMIFYKMKRKLDHGSEVRSFSLGKKPCKVSEYTSTTGLVPCSATPTTFGDLRAANGQGQQRRRITSVQPPTGLQEWLKMFQSWSGPEKLLALDELIDSCEPTQVKHMMQVIEPQFQRDFISLLPKELALYVLSFLEPKDLLQAAQTCRYWRILAEDNLLWREKCKEEGIDEPLHIKRRKVIKPGFIHSPWKSAYIRQHRIDTNWRRGELKSPSGSGSGSGMDLGKKLLEAARAGQDDEVRILMANGADVNASDRGGGTPLHLAAAGGHLEIVEVLLKRGADVSAADLHGQSPLHLAAMVGHLEIVEVLLKYGADVNAKDTMGATPLHLAARSGHLEIVEELLKNGADMNAQDKFGKTTFDISTDNGNEDLAEILQKL
B7: recombinant polypeptide K19-ASB1 (N-K19 (first polypeptide)-linker peptide-ASB1 (second polypeptide)-C) (other)
chain: MDLGKKLLEAARAGQDDEVRILMANGADVNASDRGGGTPLHLAAAGGHLEIVEVLLKRGADVSAADLHGQSPLHLAAMVGHLEIVEVLLKYGADVNAKDTMGATPLHLAARSGHLEIVEELLKNGADMNAQDKFGKTTFDISTDNGNEDLAEILQKLSGSGSGSGVKWESLGPESRGRRKVDPEALQVFKEARSVPRTLLCLCRVAVRRALGKHRLHLIPSLPLPDPIKKFLLHEGS
B8: recombinant polypeptide K19-SOCS2 (N-K19 (first polypeptide)-linker peptide-SOCS2 (second polypeptide)-C) (other)
chain: MDLGKKLLEAARAGQDDEVRILMANGADVNASDRGGGTPLHLAAAGGHLEIVEVLLKRGADVSAADLHGQSPLHLAAMVGHLEIVEVLLKYGADVNAKDTMGATPLHLAARSGHLEIVEELLKNGADMNAQDKFGKTTFDISTDNGNEDLAEILQKLSGSGSGSGPRNGTVHLYLTKPLYTSAPSLQHLCRLTINKCTGAIWGLPLPTRLKDYLEEYKFQVGS
B9: recombinant polypeptide CRBN-K19 (N-CRBN (second polypeptide)-linker peptide-K19 (first polypeptide)-C) (other)
chain: MGGLDYKDDDDKASAGEGDQQDAAHNMGNHLPLLPAESEEEDEMEVEDQDSKEAKKPNIINFDTSLPTSHTYLGADMEEFHGRTLHDDDSCQVIPVLPQVMMILIPGQTLPLQLFHPQEVSMVRNLIQKDRTFAVLAYSNVQEREAQFGTTAEIYAYREEQDFGIEIVKVKAIGRQRFKVLELRTQSDGIQQAKVQILPECVLPSTMSAVQLESLNKCQIFPSKPVSREDQCSYKWWQKYQKRKFHCANLTSWPRWLYSLYDAETLMDRIKKQLREWDENLKDDSLPSNPIDFSYRVAACLPIDDVLRIQLLKIGSAIQRLRCELDIMNKCTSSGSGSGSGMDLGKKLLEAARAGQDDEVRILMANGADVNASDRGGGTPLHLAAAGGHLEIVEVLLKRGADVSAADLHGQSPLHLAAMVGHLEIVEVLLKYGADVNAKDTMGATPLHLAARSGHLEIVEELLKNGADMNAQDKFGKTTFDISTDNGNEDLAEILQKL

The assay deals with KRAS protein (UniProt P01116 1-186, limits assumed). Put plainly: cell-based or functional assay.
For B1, the “Percentage of KRAS protein level (Western Blot, H358 cells, 6 hours after transfection; protein level of EV29-K19-VHKC as control)” value (“Percentage of KRAS protein level” below) was 28.3%.

Turning to B2, the “Percentage of KRAS protein level” value turned out to be 22.4%.

Turning to B3, the “Percentage of KRAS protein level” value stood at 19.3%.

As for B4, the “Percentage of KRAS protein level” value was 20.4%.

For B5, the “Percentage of KRAS protein level” value came out at 52.6%.

B6: the “Percentage of KRAS protein level” value stood at 45.9%.

Turning to B7, the “Percentage of KRAS protein level” value was 39.8%.

On to B8, for which the “Percentage of KRAS protein level” value was determined as 47.3%.

Take B9: the “Percentage of KRAS protein level” value stood at 28.2%.
